# Source: patent US20050042227A1
# B1: RAP-IDU fusion (human RAP fused N-terminally to human alpha-L-iduronidase) (protein)
# chain: SYSREKNQPKPSPKRESGEEFRMEKLNQLWEKAQRLHLPPVRLAELHADLKIQERDELAWKKLKLDGLDEDGEKEARLIRNLNVILAKYGLDGKKDARQVTSNSLSGTQEDGLDDPRLEKLWHKAKTSGKFSGEELDKLWREFLHHKEKVHEYNVLLETLSRTEEIHENVISPSDLSDIKGSVLHSRHTELKEKLRSINQGLDRLRRVSHQGYSTEAEFEEPRVIDLWDLAQSANLTDKELEAFREELKHFEAKIEKHNHYQKQLEIAHEKLRHAESVGDGERVSRSREKHALLEGRTKELGYTVKKHLQDLSGRISRARAEAETGEAPHLVHVDAARALWPLRRFWRSTGFCPPLPHSQADQYVLSWDQQLNLAYVGAVPHRGIKQVRTHWLLELVTTRGSTGRGLSYNFTHLDGYLDLLRENQLLPGFELMGSASGHFTDFEDKQQVFEWKDLVSSLARRYIGRYGLAHVSKWNFETWNEPDHHDFDNVSMTMQGFLNYYDACSEGLRAASPALRLGGPGDSFHTPPRSPLSWGLLRHCHDGTNFFTGEAGVRLDYISLHRKGARSSISILEQEKVVAQQIRQLFPKFADTPIYNDEADPLVGWSLPQPWRADVTYAAMVVKVIAQHQNLLLANTTSAFPYALLSNDNAFLSYHPHPFAQRTLTARFQVNNTRPPHVQLLRKPVLTAMGLLALLDEEQLWAEVSQAGTVLDSNHTVGVLASAHRPQGPADAWRAAVLIYASDDTRAHPNRSVAVTLRLRGVPPGPGLVYVTRYLDNGLCSPDGEWRRLGRPVFPTAEQFRRMRAAEDPVAAAPRPLPAGGRLTLRPALRLPSLLLVHVCARPEKPPGQVTRLRALPLTQGQLVLVWSDEHVGSKCLWTYEIQFSQDGKAYTPVSRKPSTFNLFVFSPDTGAVSGSYRVRALDYWARPGPFSDPVPYLEVPVPRGPPSPGNP
# Biological target: LRP
# Assay: cell-based or functional assay
binder,measurement,value
B1,"Kuptake ratio (fusion/enzyme), RAP-IDU against rhIDU, fibroblast (ratio (fusion/enzyme))",25
same,"Uptake ratio (fusion/enzyme), RAP-IDU against rhIDU, fibroblast, 5 nM (ratio (fusion/enzyme))",7
same,"Uptake ratio (fusion/enzyme), RAP-IDU against rhIDU, fibroblast, 50 nM (ratio (fusion/enzyme))",27
same,"Uptake ratio (fusion/enzyme), RAP-IDU against rhIDU, fibroblast, saturation (ratio (fusion/enzyme))",43
